Laboratory results as given in article PMC2275097.
Like-named read-outs stand apart in the source and are kept apart here.

T1: hLon (human Lon protease) (Homo sapiens, UniProt P36776 68-959)
T1 sequence: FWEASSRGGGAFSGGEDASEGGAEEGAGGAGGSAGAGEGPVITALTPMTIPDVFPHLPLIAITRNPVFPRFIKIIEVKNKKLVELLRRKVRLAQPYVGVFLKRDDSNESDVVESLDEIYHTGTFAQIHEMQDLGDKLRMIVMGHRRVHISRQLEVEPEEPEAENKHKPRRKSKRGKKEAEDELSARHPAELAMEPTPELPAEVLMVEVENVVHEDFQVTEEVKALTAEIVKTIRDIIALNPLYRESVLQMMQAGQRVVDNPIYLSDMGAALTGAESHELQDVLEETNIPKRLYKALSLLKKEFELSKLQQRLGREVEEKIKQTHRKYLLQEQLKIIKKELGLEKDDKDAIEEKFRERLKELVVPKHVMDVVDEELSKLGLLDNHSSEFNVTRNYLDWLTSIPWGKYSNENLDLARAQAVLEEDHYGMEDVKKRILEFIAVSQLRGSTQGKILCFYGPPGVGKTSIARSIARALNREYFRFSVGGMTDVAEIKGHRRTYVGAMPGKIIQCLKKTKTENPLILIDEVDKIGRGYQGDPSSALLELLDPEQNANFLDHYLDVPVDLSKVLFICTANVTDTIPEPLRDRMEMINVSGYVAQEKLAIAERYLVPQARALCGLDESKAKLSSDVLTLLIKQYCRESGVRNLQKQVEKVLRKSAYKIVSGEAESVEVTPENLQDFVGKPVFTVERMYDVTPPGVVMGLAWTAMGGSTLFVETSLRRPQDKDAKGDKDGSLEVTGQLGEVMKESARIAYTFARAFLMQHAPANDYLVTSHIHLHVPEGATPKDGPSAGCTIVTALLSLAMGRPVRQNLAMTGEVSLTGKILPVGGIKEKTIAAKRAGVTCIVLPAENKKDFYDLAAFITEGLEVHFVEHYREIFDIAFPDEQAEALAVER


Experiments:
[1] = target: T1, hLon (human Lon protease); assay: competition
[2] = target: T1, hLon (human Lon protease); assay: ITC
[3] = target: T1, hLon (human Lon protease); assay: ITC; remark: listed apart in the source
[4] = target: T1, hLon (human Lon protease); assay: ITC; remark: listed apart in the source
[5] = target: T1, hLon (human Lon protease); assay: ITC; remark: listed apart in the source
[6] = target: T1, hLon (human Lon protease); assay: ITC; remark: listed apart in the source
[7] = target: T1, hLon (human Lon protease); assay: ITC; remark: listed apart in the source

Row | Binder | binding result [1] | Ka [2] | Ka [3] | Ka [4] | Ka [5] | Kd [6] [µM] | Ka [7]
1 | GTGTTAGTTGGGGGGTGA (structured_DNA) [LSPas18] | binds |  |  |  |  |  | 
2 | TGGGGGGT (structured_DNA) [TG6T] |  | 1.24 ± 0.58 10^5 M^-1 | 1.35 ± 0.89 10^5 M^-1 | 1.36 ± 0.22 10^5 M^-1 | 3.48 ± 0.36 10^5 M^-1 | 7.35 | 
3 | AATAATGTGTTAGTTGGGGGGTGA (structured_DNA) [LSPas] |  |  | 2.45 ± 0.43 10^5 M^-1 | 3.03 ± 0.83 10^5 M^-1 | 2.6 ± 0.72 10^5 M^-1 |  | 2.11 ± 0.11 10^5 M^-1
